US20240293512A1 (HANMI PHARM, published 2024)
Bridge positions count the residues as written; N and C are the ends. Square brackets hold non-standard residues; d marks the D form. Ends that are not written are not given here. * marks the point of attachment. Acetyl(2-(4-imidazolyl)) = O=C(Cc1c[nH]cn1)*; Aib = CC(C)(N)C(=O)O

T1: human GIP receptor (human, UniProt P48546 22-466)
T1 sequence (looked up): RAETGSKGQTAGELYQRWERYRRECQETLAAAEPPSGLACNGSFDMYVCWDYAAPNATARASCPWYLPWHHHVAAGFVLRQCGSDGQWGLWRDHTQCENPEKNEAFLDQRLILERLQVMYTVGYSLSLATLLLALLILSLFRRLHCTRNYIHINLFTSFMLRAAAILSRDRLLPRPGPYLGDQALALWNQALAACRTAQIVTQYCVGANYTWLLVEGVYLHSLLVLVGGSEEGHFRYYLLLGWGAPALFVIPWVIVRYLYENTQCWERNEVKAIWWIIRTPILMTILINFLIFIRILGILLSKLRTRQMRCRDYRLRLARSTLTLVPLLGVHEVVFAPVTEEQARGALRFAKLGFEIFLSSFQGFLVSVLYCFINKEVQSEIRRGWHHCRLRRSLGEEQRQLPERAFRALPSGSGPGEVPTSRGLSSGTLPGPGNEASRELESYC


Tests used:
Test in all cases: cell-based or functional assay
human GLP-1 receptor = human GLP-1 receptor (human, UniProt P43220 24-463)
human GIP receptor = target: T1, human GIP receptor
human GCG receptor = human GCG receptor (human, UniProt P47871 26-477)
Sequence of human GCG receptor (P47871 26-477): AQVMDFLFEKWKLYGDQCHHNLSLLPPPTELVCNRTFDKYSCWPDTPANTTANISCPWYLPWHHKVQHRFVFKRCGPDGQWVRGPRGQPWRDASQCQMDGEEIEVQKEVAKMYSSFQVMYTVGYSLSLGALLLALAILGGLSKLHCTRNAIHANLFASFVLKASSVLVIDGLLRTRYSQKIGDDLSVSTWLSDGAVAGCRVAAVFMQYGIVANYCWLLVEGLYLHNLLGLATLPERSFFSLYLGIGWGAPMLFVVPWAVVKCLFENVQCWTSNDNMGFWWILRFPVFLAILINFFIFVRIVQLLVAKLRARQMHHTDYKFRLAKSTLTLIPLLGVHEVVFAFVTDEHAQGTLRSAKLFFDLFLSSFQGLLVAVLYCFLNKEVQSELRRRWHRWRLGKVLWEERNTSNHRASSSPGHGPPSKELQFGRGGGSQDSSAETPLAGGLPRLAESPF

Binder | In vitro activity compared with native peptide (%) vs GLP-1 (cAMP EC50) (human GLP-1 receptor) [%] | In vitro activity compared with native peptide (%) vs GIP (cAMP EC50) (human GIP receptor) [%] | In vitro activity compared with native peptide (%) vs Glucagon (cAMP EC50) (human GCG receptor) [%]
H[Aib]QGTFTSDYSIAMDEIHQKDFVNWLLNTKC (bridge 16-20) [triple agonist of SEQ ID NO: 35] | 7.5 | 1.3 | < 0.1
H[Aib]QGTFTSDYSKYLDEKRQKEFVQWLLDTC (bridge 16-20) [triple agonist of SEQ ID NO: 52] | 44.1 | 0.3 | 7.5
[Acetyl(2-(4-imidazolyl))][Aib]QGTFTSDKSSYLDERAAQDFVQWLLDGGPSSGAPPPSS [triple agonist of SEQ ID NO: 38] | 2.3 |  | 
H[Aib]QGTFTSDKSKYLDECAAQDFVQWLLDGGPSSGAPPPS [triple agonist of SEQ ID NO: 41] | 34.3 | < 0.1 | < 0.1
Y[Aib]QGTFTSDYSKYLDEKRAKEFVQWLLDHHCSSGQPPPS (not fully specified (bridges)) [triple agonist of SEQ ID NO: 43] | 12.6 | 3.7 | 88.4
H[Aib]QGTFTSDYSKYLDEKRQKEFVQWLLNTC (bridge 16-20) [triple agonist of SEQ ID NO: 51] | 14.4 | 0.1 | 2
H[Aib]QGTFTSDVSSYLLGQQQKEFIAWLVKGGGPSSGAPPPSC [triple agonist of SEQ ID NO: 5] | 42.1 | < 0.1 | < 0.1
[Acetyl(2-(4-imidazolyl))][Aib]QGTFTSDYSICMDEIHQKDFVNWLLNTK (bridge 16-20) [triple agonist of SEQ ID NO: 49] | 29.8 | 3.3 | < 0.1
H[Aib]QGTFTSDYSKYLDEKRQKEFVNWLLAQKC (bridge 16-20) [triple agonist of SEQ ID NO: 34] | 19.1 | 0.6 | 0.92
H[Aib]QGTFTSDVSSYLDGQAAKEFIAWLVKGC [triple agonist of SEQ ID NO: 1] | 3.2 | < 0.1 | < 0.1
H[Aib]EGTFTSDYSIAMDEIHQKDFVNWLLAQC (bridge 16-20) [triple agonist of SEQ ID NO: 53] | 161 | 1.3 | 8.4
H[Aib]QGTFTSDYSKYLDEKRAKEFVQWLLDHHPSSGQPPPSC (bridge 16-20) [triple agonist of SEQ ID NO: 50] | 67.4 | 2.7 | 50.5
H[Aib]QGTFTSDYSKYLDECRQKEFVQWLLNGGPSSGAPPPSG (bridge 16-20) [triple agonist of SEQ ID NO: 37] | 236 | 2.2 | 6.21
HGQGTFTSDCSKQLDGQAAQEFVAWLLAGGPSSGAPPPS [triple agonist of SEQ ID NO: 44] | 1.3 | < 0.1 | < 0.1
HGQGTFTSDCSKYLDGQRAQDFVNWLLAGGPSSGAPPPS [triple agonist of SEQ ID NO: 48] | 1.5 | < 0.1 | < 0.1
HGQGTFTSDCSKYLDGQRAQEFVAWLLAGGPSSGAPPPS [triple agonist of SEQ ID NO: 47] | 2.4 | < 0.1 | < 0.1
HGQGTFTSDCSKYLDEQHAQEFVAWLLAGGPSSGAPPPS [triple agonist of SEQ ID NO: 46] | 1.4 | < 0.1 | < 0.1
HGQGTFTSDCSKYMDGQAAQDFVAWLLAGGPSSGAPPPS [triple agonist of SEQ ID NO: 45] | 6.6 | < 0.1 | < 0.1
H[Aib]QGTFTSDVSSYLLGQQQKEFIAWLVKGC [triple agonist of SEQ ID NO: 4] | 8.5 | < 0.1 | < 0.1
H[Aib]QGTFTSDYSKYLDGQHAQCFVAWLLAGGGPSSGAPPPS [triple agonist of SEQ ID NO: 39] | 13.9 | < 0.1 | 0.53
H[Aib]QGTFTSDYSKYLCEKRQKEFVQWLLNGGPSSGAPPPSG (bridge 16-20) [triple agonist of SEQ ID NO: 36] | 37.4 | 0.2 | 0.39
H[Aib]QGTFTSDKSKYLDERACQDFVQWLLDGGPSSGAPPPS [triple agonist of SEQ ID NO: 40] | 75.2 | < 0.1 | < 0.1
Y[Aib]QGTFTSDYSKYLDEKRAKEFVQWLLDHHPSSGQPPPSC (not fully specified (bridges)) [triple agonist of SEQ ID NO: 42] | 33.9 | 7.8 | 206
